Measurements taken from PMC314469, “Protein Interaction Networks by Proteome Peptide Scanning” (PLoS Biology, 2004).

T1: Abp1 SH3 (ABP1_YEAST), P15891
T1 chain: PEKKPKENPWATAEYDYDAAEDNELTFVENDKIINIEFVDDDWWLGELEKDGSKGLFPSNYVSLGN


Molecular target: T1, Abp1 SH3 (ABP1_YEAST), P15891
Assay: SPOT array

| Binder | normalised SPOT signal, Boehringer light units (BLU); mean over the file's lines of this peptide |
| --- | --- |
| PDLRLTKSGKPKKP [YDR464W 659-672] | 131 |
| NYNSNNNAGSPIRP [YGL073W 519-532] | 58.5 |
| NVTFRRDPNSFRP [YDR091C 569-581] | 363 |
| NTMVEMKRKKPVRP [YDR436W 382-395] | 1120 |
| NSNGPTPAVLPQKP [YDL053C 27-40] | 56 |
| NSSSKKTSSHPSRP [YER047C 483-496] | 73.4 |
| PDEVLTKMNAPQKP [YCR004C 43-56] | 81.4 |
| PFEMVTEVPIPRRP [YGR156W 131-144] | 688 |
| NVLFIKIPMFLRP [YGL195W 2278-2290] | 79.2 |
| PETREASLDIPYKP [YFL011W 29-42] | 16.9 |
| NVSSSSQPASSRP [YBL081W 344-356] | 136 |
| PIIKWFGPLEYKP [YCL044C 243-255] | 85.4 |
| NSTAAAPIAAPKKP [YGL025C 234-247] | 201 |
| PGEMLMRIFFPKKP [YBR041W 461-474] | 561 |
| PAKQKTPPSPAKP [YBR102C 23-35] | 557 |
| NVTKETKEILPVKP [YCL014W 801-814] | 43 |
| NVTDPLAAIYPSRP [YGR237C 285-298] | 40.9 |
| PDYIRSIAVHPTKP [YGL137W 97-110] | 51.9 |
| NYVALWAKFFPEKP [YGR024C 108-121] | 103 |
| PDSSFDKVETPPKP [YDR085C 528-541] | 196 |
| PEMLHVKDHQPGKP [YDR433W 131-144] | 120 |
| PAGINDSPSPVKP [YGR092W 45-57] | 117 |
| PITVEYPNEYPSKP [YDL064W 59-72] | 96.3 |
| PSYSDTHLHGPFKP [YER134C 18-31] | 80.2 |

Next, values leading:

| normalised SPOT signal, Boehringer light units (BLU); mean over the file's lines of this peptide | Binder |
| --- | --- |
| 185 | NSMTGIAQILPTKP [YLR082C 61-74] |
| 520 | PKIPRLVPHWEKP [YNL009W 115-127] |
| 138 | PFKTSSTPTTPERP [YHR182W 754-767] |
| 116 | NVDDSVLRQKPDKP [YMR032W 377-390] |
| 131 | PANSTNNSNEPIRP [YMR081C 97-110] |
| 28.9 | PITGDVETNEPTKP [YMR042W 16-29] |
| 1330 | PKKPFFTPWKPRP [YNL137C 417-429] |
| 705 | NSSQRSQLRFPEKP [YNL139C 1491-1504] |
| 0 | NVYKIYNHVMPLKP [YNL236W 155-168] |
| 53 | PFHVQETMDFPYKP [YLR072W 386-399] |
| 726 | PIMKFSTPSYKKP [YKL064W 123-135] |
| 20.4 | NSSFFNQPPVHRP [YPR185W 391-403] |
| 4320 | NSSATKTPFVRRP [YGR285C 16-28] |
| 913 | PEPMKNLTNRPKRP [YNL216W 571-584] |
| 140 | PESKSPRVTTPLKP [YJR083C 40-53] |
| 67 | PIANTQYGDIPVRP [YOL004W 624-637] |
| 103 | NYSIKYMLLEPSKP [YPL008W 555-568] |
| 220 | NSQPVSYPRVSKP [YPL007C 81-93] |
